Results from patent US20170369591.

Tested on: topoisomerase I
Sequence (chain, as listed by the source): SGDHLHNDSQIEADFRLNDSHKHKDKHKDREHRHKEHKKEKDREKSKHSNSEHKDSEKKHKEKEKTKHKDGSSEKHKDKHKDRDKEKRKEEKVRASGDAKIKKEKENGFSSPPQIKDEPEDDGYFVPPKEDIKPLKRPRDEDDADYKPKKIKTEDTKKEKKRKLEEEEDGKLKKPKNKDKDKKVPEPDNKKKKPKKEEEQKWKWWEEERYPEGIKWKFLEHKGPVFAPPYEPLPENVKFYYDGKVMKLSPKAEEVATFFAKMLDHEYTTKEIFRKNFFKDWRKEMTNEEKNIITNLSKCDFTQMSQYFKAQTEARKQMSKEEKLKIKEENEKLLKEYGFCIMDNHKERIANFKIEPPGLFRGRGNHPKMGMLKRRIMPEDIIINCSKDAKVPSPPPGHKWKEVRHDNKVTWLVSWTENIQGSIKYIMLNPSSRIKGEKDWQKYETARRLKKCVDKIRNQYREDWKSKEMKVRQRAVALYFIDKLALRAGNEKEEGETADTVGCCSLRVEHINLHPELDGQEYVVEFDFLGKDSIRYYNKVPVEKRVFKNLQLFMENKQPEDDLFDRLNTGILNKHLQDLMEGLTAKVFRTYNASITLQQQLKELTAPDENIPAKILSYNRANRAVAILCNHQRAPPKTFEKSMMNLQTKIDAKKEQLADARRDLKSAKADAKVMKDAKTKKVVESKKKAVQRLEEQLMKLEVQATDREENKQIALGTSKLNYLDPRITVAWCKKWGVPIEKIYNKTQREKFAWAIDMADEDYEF

BRCA1-Flag/BARD1
in vitro ubiquitination, immunoblot with anti-ubiquitin: showed ubiquitination of topo I by BRCA 1
